Measured values: US6642353B1, “Peptide ligands for the erythropoietin receptor” (Chugai Seiyaku Kabushiki Kaisha, priority 2000, dated 2003)
Positions of bridges follow the written chain, without caps; N, C: chain ends. Residues, ends and D or L forms follow the SMILES beside them. No end group written: not given here.

T1: chimeric Ig-EPOR protein (human; murine, UniProt P19235 25-250)
T1 construct: extracellular domain; Secreted from COS-7 cells transfected with pcDNA3-IgG1-EPOR; major species about 59 kDa; also called IgG-EPOR; chimeric receptor; not shown: hinge region, CH2 and CH3 domains of the murine IgG1 heavy chain
T1 sequence (looked up): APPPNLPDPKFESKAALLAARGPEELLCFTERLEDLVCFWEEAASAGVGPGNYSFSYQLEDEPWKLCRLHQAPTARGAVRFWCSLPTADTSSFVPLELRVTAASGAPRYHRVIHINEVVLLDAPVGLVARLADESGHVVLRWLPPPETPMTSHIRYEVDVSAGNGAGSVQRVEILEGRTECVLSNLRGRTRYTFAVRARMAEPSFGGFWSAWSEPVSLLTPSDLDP

B1: 17-mer peptide 7N-1 (peptide)
peptide: REGCRRGWVGQCKAWFN
modifications: disulfide 4-12 (inferred)
notes: N-terminal truncation of ERB1-7
B2: phage clone B18 (peptide)
chain: YSDVCRRGWVGHCEDWLGDEYSSQPSYALPHSTSLNPR
notes: not shown: M13 phage pIII coat protein
B3: phage clone B19 (peptide)
chain: DLEGCRLGWVGHCNVWGGDEYTKRTSHSVPPSHKSKLL
notes: as for B2
B4: phage clone B20 (peptide)
chain: DLAGCRRGWVGHCSEWLRDEYTSNPRYPVAPSYRLQPP
notes: as for B2
B5: phage clone B6 (peptide)
chain: SLEPCRGGWVGHCNEWQRDEYAINPKWPNAPIEDPNPL
notes: as for B2
B6: phage clone B13 (peptide)
chain: EGEVCLPGWVGHCKYWLMDEYANIPRNPTPRSNELKPP
notes: as for B2
B7: phage clone B16 (peptide)
chain: DVEVCRGGWVGHCNAWLRDEYNRQPKKPVQQQVVYSTR
notes: as for B2
B8: phage clone B10 (peptide)
chain: DLEVCRGGWVGHCKDWIWDEYARNPRYPDPQRKEVKSP
notes: as for B2
B9: phage clone B15 (peptide)
chain: QVDTCTRGWVGHCNAWMGDEYAKTPGLPMPQSDYLKPR
notes: as for B2
B10: phage clone B9 (peptide)
chain: DFEDCQGGWVGHCNDWLGDEYARHPRYGATQTLSVNRH
notes: as for B2
B11: phage clone B3 (peptide)
chain: GKEVCRRGWVGHCQEWPMDEYTRNPSHPVPHNSRHKTP
notes: as for B2
B12: phage clone B1 (peptide)
chain: DVHECRPGWVGHCKDWLSDEYASNRRSPEPHRNYPIPP
notes: as for B2
B13: phage clone B17 (peptide)
chain: LLQMCSPGWVGHCNDWPRDEYANNPPNPVVDRQALTPP
notes: as for B2
B14: phage clone B21 (peptide)
chain: AKVVCRNGWVGHCSAWLTDEYESNPNTRIPNTFDMKTP
notes: as for B2
B15: phage clone B7 (peptide)
chain: DREGCRRGWVGQCKAWFNDEYAKPPKKPFRNSYSLGPA
notes: as for B2
B16: phage clone B8 (peptide)
chain: DVEACGGGWVGHCNYWLRDEYASKPIKQVPPGNHNQPS
notes: as for B2
B17: phage clone N8 (peptide)
chain: GLNICRPGWVGHCNDSLRDEYATNPRTPGPLSYNLQPT
notes: as for B2
B18: phage clone N6 (peptide)
chain: EWVYSRQSWGGQWKDGVRDEYTMTPGDPVANKYSLMTP
notes: as for B2
B19: phage clone N13 (peptide)
chain: DIAVCRGGCVGLCEEGLRDEYACNVKKPVPHSYKLNTP
notes: as for B2
B20: phage clone N1 (peptide)
chain: RLEDGDEGRVWHSSDLLSDEYASTPSYPLTPNYYEYPP
notes: as for B2
B21: phage clone N10 (peptide)
chain: DFEGSLREWDGDWPEWLRDEYARPSYPNPHKANQKPP
notes: as for B2
B22: phage clone N5 (peptide)
chain: NSDVTRRGWADHWREWNWDEYASTPTHPASHSSYLNPP
notes: as for B2
B23: phage clone N4 (peptide)
chain: ELDMLRGGGVGQSKESLRDEYDHKTSTPVPPNQKLPPP
notes: as for B2
B24: phage clone N7 (peptide)
chain: EFVVWPRGWVGHCKGCRVDEYSGDPSNLEAQTHDMNFQ
notes: as for B2
B25: phage clone N12 (peptide)
chain: DVEVGRRACVGYCQEFLRDEYTATPSYPDKHSNYLNPP
notes: as for B2
B26: phage clone N2 (peptide)
chain: GWAGCRSGGAGQCKEGAGDEYAENPSYPVPPRKHLNRL
notes: as for B2
B27: phage clone N3 (peptide)
chain: DLNVGCPGYVGHCADWLGDEYPVHPNPEVPQTLNLKPH
notes: as for B2
B28: phage clone N11 (peptide)
chain: ALDVGRWDGVGHCKGCLKDEYTTLDSKNNPQISQVSPT
notes: as for B2
B29: phage clone N9 (peptide)
chain: SVDVCNQGGVGRCNDGLGDEYASKPSYQEAPRYNPNLR
notes: as for B2

target: T2, chimeric Ig-EPOR protein (Homo sapiens, UniProt P19235); experiment: peptide inhibition ELISA (binding of Ig-EPOR to EPO-coated plates); details: not given
T2 construct: a fusion protein having domains corresponding to murine IgG1 and the extracellular domain (ECD) of the human EPOR; made in house; secreted into the medium
Protocol: The wells were washed three times with PBS containing 0.05% (v/v) TWEEN® 20 non-ionic detergent, and then blocked with 1% (w/v) BSA and 0.05% TWEEN® 20 in PBS (blocking buffer) to prevent non-specific binding. Excess blocking buffer was removed by washing once. Culture media was serially diluted in blocking buffer, and 50 μl from each dilution was added to the coated and blocked wells. Wells receiving undiluted media served as a control. A set of uncoated wells also received the diluted cell-free media. Plates were then incubated for 2 hours at room temperature, and washed three times as described above. After removing unbound chimeric receptor by washing, bound chimeric protein was assayed using 100 μl of the HRP labeled anti-murine IgG antibody, substantially as described above. Color development was initiated by addition of 100 μl of the TMB peroxidase substrate, and the extent of the peroxidase reaction measured spectrophotometrically at 450 nm and 650 nm, as described above.
Synthetic peptides having the sequences […] (SEQ ID NO:81), and […] (SEQ ID NO:82) were synthesized in the cyclic (disulfide-bonded) form using standard procedures (Peninsula Laboratories, Belmont, Calif.). The 18-mer peptide sequences were derived from the B7 and B8 clones, and the peptides are referred to herein as “ERB1-7” (SEQ ID NO:81) and “ERB1-8” (SEQ ID NO:82), respectively. The structures of the two purified peptides, each being greater than 95% pure as judged by HPLC, were confirmed by mass spectrometry. […] Such synthetic peptides are EPO mimetics.
Synthetic peptides corresponding to the sequence of ERB1-7, but missing either one, two, three or four N-terminal amino acids were tested in the peptide inhibition ELISA protocol. The following peptides were synthesized and tested substantially as described in Example 8: 18-mer peptide ERB1-7, consisting of […] (SEQ ID NO:81);

Row | Molecule | IC50 [nM]
1 | CC(C)[C@@H]1NC(=O)[C@H](Cc2c[nH]c3ccccc23)NC(=O)CNC(=O)[C@H](CCCNC(=N)N)NC(=O)[C@H](CCCNC(=N)N)NC(=O)[C@@H](NC(=O)CNC(=O)[C@H](CCC(=O)O)NC(=O)[C@H](CCCNC(=N)N)NC(=O)[C@@H](N)CC(=O)O)CSSC[C@@H](C(=O)N[C@@H](CCCCN)C(=O)N[C@@H](C)C(=O)N[C@@H](Cc2c[nH]c3ccccc23)C(=O)N[C@@H](Cc2ccccc2)C(=O)N[C@@H](CC(N)=O)C(=O)O)NC(=O)[C@H](CCC(N)=O)NC(=O)CNC1=O [ERB1-7] (H-DREGCRRGWVGQCKAWFN-OH; disulfide 5-13; N-terminus and C-terminus assumed) | ~45
2 | CC(C)C[C@H](NC(=O)[C@H](Cc1c[nH]c2ccccc12)NC(=O)[C@H](Cc1ccc(O)cc1)NC(=O)[C@H](CC(N)=O)NC(=O)[C@@H]1CSSC[C@H](NC(=O)[C@H](C)NC(=O)[C@H](CCC(=O)O)NC(=O)[C@@H](NC(=O)[C@@H](N)CC(=O)O)C(C)C)C(=O)NCC(=O)NCC(=O)NCC(=O)N[C@@H](Cc2c[nH]c3ccccc23)C(=O)N[C@@H](C(C)C)C(=O)NCC(=O)N[C@@H](Cc2c[nH]cn2)C(=O)N1)C(=O)N[C@@H](CCCNC(=N)N)C(=O)O [ERB1-8] (H-DVEACGGGWVGHCNYWLR-OH; disulfide 5-13; N-terminus and C-terminus assumed) | ~45

same assay, conditions: N-terminal truncations of ERB1-7

Row | Molecule | EPOR binding activity
3 | CRRGWVGQCKAWFN [7N-4] | abolished EPOR binding activity
4 | GCRRGWVGQCKAWFN [7N-3] | abolished EPOR binding activity

target: T1, chimeric Ig-EPOR protein; experiment: peptide inhibition ELISA: Ig-EPOR binding to EPO-coated plates; details: not given
Source text: Thus, the consensus 12-mer peptide sequence given by SEQ ID NO:12 likely was necessary but not sufficient to create synthetic peptides having high affinity for the EPOR.

Row | Molecule | IC50 [nM]
5 | B1 | 91

target: T1, chimeric Ig-EPOR protein; experiment: biopanning of the ERB1 evolved library with Ig-EPOR (FIG. 4); details: not given
Protocol: The beads were washed three times in TBST (Tris buffered saline containing 0.1% (v/v) TWEEN® 20) and then suspended in 1 ml blocking medium (TBS SUPERBLOCK®). Phage in 100 μl aliquots containing about 1 ×10^10 plaque forming units (pfu) were added to the beads and the mixtures rotated gently for 2 hrs at room temperature. After washing the beads five times in TBST, phage were eluted with 300 μl of 50 mM glycine buffer (pH 2.2) for 10 min at room temperature. Eluted phage were immediately neutralized with 8 μl 2M Tris base that had not been pH-adjusted, mixed and stored at 4° C. Phage isolated by biopanning were amplified by mixing equal volumes of eluted phage and an overnight culture of E. coli strain JS5, diluting the mixture in 20 ml 2xYT containing tetracycline (12.0 μg/ml), and incubating overnight with shaking at 37° C. The resulting phage lysates were cleared of cell debris by centrifugation for 5 min in a microfuge, and 100 μl of the resulting supernatant lysate was used for a subsequent round of biopanning. All phage titering was carried out using JS5 bacteria plated on 2xYT top agar and agar plates.
Several random phage clones also were isolated from the evolved library, to represent non-binding clones.

Row | Molecule | binding result
6 | B2 | binds
7 | B3 | binds
8 | B4 | binds
9 | B5 | binds
10 | B6 | binds
11 | B7 | binds
12 | B8 | binds
13 | B9 | binds
14 | B10 | binds
15 | B11 | binds
16 | B12 | binds
17 | B13 | binds
18 | B14 | binds

target: T1, chimeric Ig-EPOR protein; experiment: phage ELISA with normalized phage concentrations; details: not given
Protocol: (§1) To better characterize the phage isolates having binding specificity for the EPOR, we compared the relative affinities of the binding clones presented in FIG. 4, using a phage ELISA procedure. Phage stocks of the binding clones were titered in triplicate to accurately determine the concentration of pfu/ml for each lysate. Different isolates were then assayed by ELISA using normalized phage concentrations so that all clones were tested using equivalent numbers of phage.

Row | Molecule | fold affinity relative to the parent ERB1 clone [fold]
19 | B15 | ~20
20 | B16 | ~20

target: T1, chimeric Ig-EPOR protein; experiment: phage ELISA, relative to ERB1; details: not given
Protocol: as §1

Row | Molecule | relative affinity (Rel. Aff., ERB1 = 1.0)
21 | B17 | < 0.1
22 | B18 | < 0.1
23 | B19 | < 0.1
24 | B20 | < 0.1
25 | B21 | < 0.1
26 | B22 | < 0.1
27 | B23 | < 0.1
28 | B24 | < 0.1
29 | B25 | < 0.1
30 | B26 | < 0.1
31 | B27 | < 0.1
32 | B28 | < 0.1
33 | B29 | < 0.1
